The chains are these.
B1: DISC1 598-854 C680S/C682S/C684S/C698S/C762S/C782S/C844S (domain or fragment)
chain: GNHFFTAKDLTEEIRSLTSEREGLEGLLSKLLVLSSRNVKKLGSVKEDYNRLRREVEHQETAYETSVKENTMKYMETLKNKLSSSKSPLLGKVWEADLEASRLLIQSLQLQEARGSLSVEDERQMDDLEGAAPPIPPRLHSEDKRKTPLKVLEEFKTHLIPSLHSAGGEQKEESYILSAELGEKSEDIGKKLLYLEDQLHTAIHSHDEDLIQSLRRELQMVKETLQAMILQLQPAKEAGEREAAASSMTAGVHEAQA
B2: DISC1 598-854 C698S/C762S/C782S/C844S (domain or fragment)
chain: GNHFFTAKDLTEEIRSLTSEREGLEGLLSKLLVLSSRNVKKLGSVKEDYNRLRREVEHQETAYETSVKENTMKYMETLKNKLCSCKCPLLGKVWEADLEASRLLIQSLQLQEARGSLSVEDERQMDDLEGAAPPIPPRLHSEDKRKTPLKVLEEFKTHLIPSLHSAGGEQKEESYILSAELGEKSEDIGKKLLYLEDQLHTAIHSHDEDLIQSLRRELQMVKETLQAMILQLQPAKEAGEREAAASSMTAGVHEAQA
B3: DISC1 598-854 C684S/C698S/C762S/C782S/C844S (domain or fragment)
chain: GNHFFTAKDLTEEIRSLTSEREGLEGLLSKLLVLSSRNVKKLGSVKEDYNRLRREVEHQETAYETSVKENTMKYMETLKNKLCSCKSPLLGKVWEADLEASRLLIQSLQLQEARGSLSVEDERQMDDLEGAAPPIPPRLHSEDKRKTPLKVLEEFKTHLIPSLHSAGGEQKEESYILSAELGEKSEDIGKKLLYLEDQLHTAIHSHDEDLIQSLRRELQMVKETLQAMILQLQPAKEAGEREAAASSMTAGVHEAQA
B4: DISC1 598-854 C680S/C698S/C762S/C782S/C844S (domain or fragment)
chain: GNHFFTAKDLTEEIRSLTSEREGLEGLLSKLLVLSSRNVKKLGSVKEDYNRLRREVEHQETAYETSVKENTMKYMETLKNKLSSCKCPLLGKVWEADLEASRLLIQSLQLQEARGSLSVEDERQMDDLEGAAPPIPPRLHSEDKRKTPLKVLEEFKTHLIPSLHSAGGEQKEESYILSAELGEKSEDIGKKLLYLEDQLHTAIHSHDEDLIQSLRRELQMVKETLQAMILQLQPAKEAGEREAAASSMTAGVHEAQA
B5: DISC1 598-854 C680S/C682S/C698S/C762S/C782S/C844S (domain or fragment)
chain: GNHFFTAKDLTEEIRSLTSEREGLEGLLSKLLVLSSRNVKKLGSVKEDYNRLRREVEHQETAYETSVKENTMKYMETLKNKLSSSKCPLLGKVWEADLEASRLLIQSLQLQEARGSLSVEDERQMDDLEGAAPPIPPRLHSEDKRKTPLKVLEEFKTHLIPSLHSAGGEQKEESYILSAELGEKSEDIGKKLLYLEDQLHTAIHSHDEDLIQSLRRELQMVKETLQAMILQLQPAKEAGEREAAASSMTAGVHEAQA
B6: DISC1 598-854 C682S/C698S/C762S/C782S/C844S (domain or fragment)
chain: GNHFFTAKDLTEEIRSLTSEREGLEGLLSKLLVLSSRNVKKLGSVKEDYNRLRREVEHQETAYETSVKENTMKYMETLKNKLCSSKCPLLGKVWEADLEASRLLIQSLQLQEARGSLSVEDERQMDDLEGAAPPIPPRLHSEDKRKTPLKVLEEFKTHLIPSLHSAGGEQKEESYILSAELGEKSEDIGKKLLYLEDQLHTAIHSHDEDLIQSLRRELQMVKETLQAMILQLQPAKEAGEREAAASSMTAGVHEAQA
B7: DISC1 598-854 C682S/C684S/C698S/C762S/C782S/C844S (domain or fragment)
chain: GNHFFTAKDLTEEIRSLTSEREGLEGLLSKLLVLSSRNVKKLGSVKEDYNRLRREVEHQETAYETSVKENTMKYMETLKNKLCSSKSPLLGKVWEADLEASRLLIQSLQLQEARGSLSVEDERQMDDLEGAAPPIPPRLHSEDKRKTPLKVLEEFKTHLIPSLHSAGGEQKEESYILSAELGEKSEDIGKKLLYLEDQLHTAIHSHDEDLIQSLRRELQMVKETLQAMILQLQPAKEAGEREAAASSMTAGVHEAQA
B8: DISC1 598-854 C680S/C684S/C698S/C762S/C782S/C844S (domain or fragment)
chain: GNHFFTAKDLTEEIRSLTSEREGLEGLLSKLLVLSSRNVKKLGSVKEDYNRLRREVEHQETAYETSVKENTMKYMETLKNKLSSCKSPLLGKVWEADLEASRLLIQSLQLQEARGSLSVEDERQMDDLEGAAPPIPPRLHSEDKRKTPLKVLEEFKTHLIPSLHSAGGEQKEESYILSAELGEKSEDIGKKLLYLEDQLHTAIHSHDEDLIQSLRRELQMVKETLQAMILQLQPAKEAGEREAAASSMTAGVHEAQA

This data set concerns the molecule itself. Put plainly: SEC. In general terms: In gel filtration, larger molecules generally elute earlier.
B1: the binding result was “binds”.

As to B2, the binding result is “binds”.

For the protein B3, the binding result was “binds”.

As for B4, the binding result is listed as “binds”.

With B5, the binding result is given as “binds”.

For B6, the binding result is on record as “binds”.

Consider B7, for which the binding result is “binds”.

With B8, the binding result is on record as “binds”.

For the origin of these results see paper PMC10312692 (bioRxiv, 2023).
